The target in this data set is SP1 (endogenous, PIG1 nuclear extract) (UniProt P08047). The data set can be described thus: EMSA, supershift. To be noted: 10 ug PIG1 nuclear extract, 300 fmol biotin probe, 1.5 ug poly(dI-dC), kit binding buffer (LightShift; composition, salt and pH not given), 15 ul, 20 min room …. In general terms: A gel shift assay detects complexes by their altered migration in electrophoresis.
SP1 (endogenous, PIG1 nuclear extract), sequence (P08047 whole entry): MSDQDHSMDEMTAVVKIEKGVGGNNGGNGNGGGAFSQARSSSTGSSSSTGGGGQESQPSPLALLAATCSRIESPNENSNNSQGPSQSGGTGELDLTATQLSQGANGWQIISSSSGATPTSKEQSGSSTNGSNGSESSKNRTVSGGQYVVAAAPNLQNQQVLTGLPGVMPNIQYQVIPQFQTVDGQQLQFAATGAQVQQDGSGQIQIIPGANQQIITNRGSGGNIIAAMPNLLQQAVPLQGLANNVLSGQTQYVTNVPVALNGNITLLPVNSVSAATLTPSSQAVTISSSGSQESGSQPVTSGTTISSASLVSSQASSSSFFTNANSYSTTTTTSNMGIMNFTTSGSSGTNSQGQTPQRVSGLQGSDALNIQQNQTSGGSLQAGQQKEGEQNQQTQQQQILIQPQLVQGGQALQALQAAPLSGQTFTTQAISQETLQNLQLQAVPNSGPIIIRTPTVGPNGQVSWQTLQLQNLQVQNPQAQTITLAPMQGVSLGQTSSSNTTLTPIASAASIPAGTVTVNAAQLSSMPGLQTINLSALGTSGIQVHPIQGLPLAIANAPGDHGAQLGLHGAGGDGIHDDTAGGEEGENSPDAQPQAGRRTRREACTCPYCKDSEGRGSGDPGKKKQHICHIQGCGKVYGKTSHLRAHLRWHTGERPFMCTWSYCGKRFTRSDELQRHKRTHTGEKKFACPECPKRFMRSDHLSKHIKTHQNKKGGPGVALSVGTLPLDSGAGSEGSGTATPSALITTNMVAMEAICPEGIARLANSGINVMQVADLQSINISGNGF

“AAGACGGAATGGAATCCAGATGGGCGGGGG (double strand) [AHR promoter -129C probe]”: the binding signal (% of -129C band) came to 100.

On to “AAGATGGAATGGAATCCAGATGGGCGGGGG (double strand) [AHR promoter -129T probe]”, for which the binding signal (% of -129C band) is above 100.
